Data from patent publication US20190382490A1.
pKd: −log10 of the molar value.

Legend:
Test in all cases: Fc receptor binding, method not stated
[1] = molecular target: CD16-V158 (FcγRIIIa) (human) (UniProt P08637)
[2] = molecular target: CD32-H131 (FcγRIIa) (human) (UniProt P12318)
[3] = molecular target: CD32-R131 (FcγRIIa) (human) (UniProt P12318)
CD64 (FcγRIa) (human) = CD64 (FcγRIa) (human) (UniProt P12314)
Sequence of UniProt P12314 (P12314 16-288 limits assumed): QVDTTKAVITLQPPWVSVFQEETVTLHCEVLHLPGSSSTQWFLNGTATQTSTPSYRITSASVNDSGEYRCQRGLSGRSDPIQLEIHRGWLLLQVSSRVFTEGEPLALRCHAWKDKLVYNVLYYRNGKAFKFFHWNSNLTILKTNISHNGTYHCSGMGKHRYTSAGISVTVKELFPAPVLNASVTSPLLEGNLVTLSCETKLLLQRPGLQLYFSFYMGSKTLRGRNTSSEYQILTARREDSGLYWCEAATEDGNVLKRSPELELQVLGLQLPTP

Sequence of UniProt P08637 (P08637 17-208 F176V limits assumed): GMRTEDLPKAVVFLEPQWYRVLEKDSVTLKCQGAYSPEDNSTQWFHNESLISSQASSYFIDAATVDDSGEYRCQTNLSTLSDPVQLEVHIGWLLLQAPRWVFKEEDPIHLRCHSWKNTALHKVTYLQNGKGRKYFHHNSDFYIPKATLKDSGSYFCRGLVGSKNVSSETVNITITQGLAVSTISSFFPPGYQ

Question: With “IgG1f antibody (fucosylated, otherwise unmodified human IgG1f Fc region)” as the substance, how does the pKd [1] read?
Answer: 7.01

Question: What about the pKd [2] of the same substance?
Answer: 6.28

Question: And the pKd [3]?
Answer: 6.02

Question: And the pKd (CD64 (FcγRIa) (human))?
Answer: 9.70
